Patent US7687614 (University of California, dated 2010)

Molecular target: the molecule itself
Assay: SDS-PAGE not boiled, fluorescence imaging of the gel

B1: tdimer2(12) (tandem dimer of dimer2 with the 12 residue linker) (other)
chain: MRGSHHHHHHGMASMTGGQQMGRDLYDDDDKDPMVASSEDVIKEFMRFKVRMEGSVNGHEFEIEGEGEGRPYEGTQTAKLKVTKGGPLPFAWDILSPQFQYGSKAYVKHPADIPDYKKLSFPEGFKWERVMNFEDGGVVTVTQDSSLQDGTLIYKVKFRGTNFPPDGPVMQKKTMGWEASTERLYPRDGVLKGEIHQALKLKDGGHYLVEFKTIYMAKKPVQLPGYYYVDTKLDITSHNEDYTIVEQYERSEGRHHLFLGHGTGSTGSGSSMVASSEDVIKEFMRFKVRMEGSVNGHEFEIEGEGEGRPYEGTQTAKLKVTKGGPLPFAWDILSPQFQYGSKAYVKHPADIPDYKKLSFPEGFKWERVMNFEDGGVVTVTQDSSLQDGTLIYKVKFRGTNFPPDGPVMQKKTMGWEASTERLYPRDGVLKGEIHQALKLKDGGHYLVEFKTIYMAKKPVQLPGYYYVDTKLDITSHNEDYTIVEQYERSEGRHHLFL
notes: Exact junctions (SphI/SacI sites, start Met of second copy) are not spelled out
**Q.** Does B1 bind?
**A.** Result: binds
